Biological target: the molecule itself
Test: SDS-PAGE

B1: His6-tagged periplasmic copper binding loop (sensor domain) of CopS, CopS(34-151) (domain or fragment, Pseudomonas aeruginosa, UniProt Q9I033 34-151, looked up)
chain: FSRAIDEHFVELDHMAMSAKLAVFRDELRGLGSEQQMRRREAELLRELARHPDLGLRLNGPDGNLWFERLPQPAHPGLPANRELGAPLEPGNDASPRLTVILDISHHQHFLQRMRQLI
B1: binds.

Source: doi:10.1101/2020.05.13.092544 (bioRxiv, 2020)
